{"source": "patent US20250304677A1", "about": "(VIB VZW, published 2025)", "binders": {"B1": {"name": "VHH 2HFO19 (family 1) (VHH)", "VHH": "QVQLQESGGGLVQPGGSLRVSCAASGFPFSTVYMSWVRQAPGKGLEWVSGINNDGGVIDYADSVKGRFTISRDNAKNTLYLQLNSLKPEDTALYFCARGRSFVATLSSSLRGQGTQVTVSS", "notes": "also called Nb19"}, "B2": {"name": "VHH 3MFR60 (family 10) (VHH)", "VHH": "QVQLQESGGGLVQAGGSLRVSCAASGIIFSMNGMGWFRQAPGKQRELVASITSGGSTKYADSVKGRFTISRDNAKNTVYLQMNSLKPEDTAVYYCNIQFGSRWSTYWGQGTQVTVSS"}, "B3": {"name": "VHH 2HFO42 (family 3) (VHH)", "VHH": "QVQLQESGGGLVQAGGSLRLSCAASGSGFSGMIMGWYRQVPGKQRELVATVTSHGTTNYADSVKGRFTISRDNAKNTVLLQMNSLKPEDTAVYYCNAHFPGIYWGKGTQVTVSS", "notes": "also called 2HF042; Nb42"}}, "key": {"[1]": {"molecular_target": "T1, mouse folate receptor alpha (mFRα), recombinant protein (mouse, UniProt P35846 25-232)", "T1 construct": "Bought recombinant proteins (e.g. biotinylated, Acro Biosystems FO1-M82E9); also called mFOLR1; Ms FOLR1", "T1 sequence (P35846 25-232 limits assumed)": "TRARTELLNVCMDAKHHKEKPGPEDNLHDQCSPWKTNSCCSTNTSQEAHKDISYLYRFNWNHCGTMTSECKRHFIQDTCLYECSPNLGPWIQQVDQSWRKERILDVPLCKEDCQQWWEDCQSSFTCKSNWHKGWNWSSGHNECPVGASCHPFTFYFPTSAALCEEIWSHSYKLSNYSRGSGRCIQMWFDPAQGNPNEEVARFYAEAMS", "test": "ELISA on recombinant FRα, cMyc tag detection", "method": "(§1) Data were normalized and technical replicates were plotted as mean±SD. Data were fitted by non-linear regression and the half-maximal effective concentration ^{∘}EC50) was calculated using GraphPad Prism 9 software. ^{∘}FIG. 1C and FIG. 1D) Binding affinity determination of anti-FOLR1 VHHs for native FOLR1. Mouse ^{∘}FIG. 1C) or human FOLR1 FIG. 1D) was overexpressed on HEK293T cells and binding of the anti-FOLR1 VHHs was assessed using flow cytometry. The mean fluorescence intensity ^{∘}MFI) of the phycoerythrin signal was plotted for each VHH concentration. Data were fitted by non-linear regression using GraphPad Prism 9 software. ^{∘}FIG. 1E) Determination of the competition of representative family members with folic acid ^{∘}FA) using ELISA. Mouse FOLR1 was coated on the plate and was pre-incubated with or without 100 μM FA before adding the VHHs. Data were fitted by non-linear regression using GraphPad Prism 9 software.\n(§2) In a first step, binding affinity and cross-reactivity of the purified VHHs to human and mouse FRα was assessed by ELISA, using detection of the cMyc tag ^{∘}FIG. 1A-B). […] 2HFO19 ^{∘}family 1) was the best binder of all tested VHHs to both mouse and human FRα with an EC₅₀ of 0.1 nM and 0.4 nM respectively ^{∘}FIG. 1A-B)."}, "[2]": {"molecular_target": "T2, human folate receptor alpha (hFRα), recombinant protein (human, UniProt P15328 25-233)", "T2 construct": "Bought recombinant proteins (His-tagged, or biotinylated via Avi-tag, e.g. AcroBiosystems FO1-H82E2, F01-H52H1); also called hFOLR1; huFOLR1", "T2 sequence (P15328 25-233 limits assumed)": "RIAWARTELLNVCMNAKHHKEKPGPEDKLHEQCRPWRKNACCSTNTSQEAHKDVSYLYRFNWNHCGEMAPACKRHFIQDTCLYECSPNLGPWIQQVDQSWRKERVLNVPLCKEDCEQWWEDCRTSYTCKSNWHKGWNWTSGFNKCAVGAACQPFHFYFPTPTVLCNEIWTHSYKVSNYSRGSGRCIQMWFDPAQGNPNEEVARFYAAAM", "test": "ELISA on recombinant FRα, cMyc tag detection", "method": "as §1, §2"}, "[3]": {"molecular_target": "T1, mouse folate receptor alpha (mFRα), …", "test": "ELISA on coated mouse FOLR1 pre-incubated with 100 µM folic acid", "method": "as §1\n(§3) As interference with the endogenous transport of folates via FRα could have serious implications on brain homeostasis, competition between representative family members and FA for mouse FRα binding was assessed via ELISA ^{∘}FIG. 1E)."}, "[4]": {"molecular_target": "T1, mouse folate receptor alpha (mFRα), …", "test": "ELISA on coated mouse FOLR1, without folic acid", "method": "as §1, §3"}, "[5]": {"molecular_target": "T1, mouse folate receptor alpha (mFRα), …", "test": "ELISA on coated mouse FOLR1, without and with 100 µM folic acid (series not separable)", "method": "as §1, §3"}, "[6]": {"molecular_target": "T1, mouse folate receptor alpha (mFRα), …", "test": "ELISA on recombinant mouse FOLR1, cMyc tag detection, normalised binding, non-linear fit", "method": "as §1, §2"}}, "data": [{"binder": "B1", "values": [{"measurement": "EC50", "setting": "[1]", "value": 0.1, "unit": "nM"}, {"measurement": "EC50", "setting": "[2]", "value": 0.4, "unit": "nM"}, {"measurement": "EC50 (read off the curve)", "setting": "[3]", "value": "~1", "unit": "nM"}, {"measurement": "EC50 (read off the curve)", "setting": "[4]", "value": "~1", "unit": "nM"}]}, {"binder": "B2", "values": [{"measurement": "EC50 (read off the curve)", "setting": "[5]", "value": "~3", "unit": "nM"}, {"measurement": "EC50", "setting": "[6]", "value": 0.3, "unit": "nM"}]}, {"binder": "B3", "values": [{"measurement": "EC50 (read off the curve)", "setting": "[3]", "value": "2 to 3", "unit": "nM"}, {"measurement": "EC50", "setting": "[6]", "value": 0.2, "unit": "nM"}, {"measurement": "EC50 (read off the curve)", "setting": "[4]", "value": "~2", "unit": "nM"}]}]}
